Target: recombinant human full-length Tau (2N4R, 441 aa), non-phosphorylated (human, UniProt P10636-8 1-441)
Experiment: SPR

- Kd: 360 nM
B1: Nup98-FG/FS (full F/S mutant of Nup98-FG) (domain or fragment)
chain: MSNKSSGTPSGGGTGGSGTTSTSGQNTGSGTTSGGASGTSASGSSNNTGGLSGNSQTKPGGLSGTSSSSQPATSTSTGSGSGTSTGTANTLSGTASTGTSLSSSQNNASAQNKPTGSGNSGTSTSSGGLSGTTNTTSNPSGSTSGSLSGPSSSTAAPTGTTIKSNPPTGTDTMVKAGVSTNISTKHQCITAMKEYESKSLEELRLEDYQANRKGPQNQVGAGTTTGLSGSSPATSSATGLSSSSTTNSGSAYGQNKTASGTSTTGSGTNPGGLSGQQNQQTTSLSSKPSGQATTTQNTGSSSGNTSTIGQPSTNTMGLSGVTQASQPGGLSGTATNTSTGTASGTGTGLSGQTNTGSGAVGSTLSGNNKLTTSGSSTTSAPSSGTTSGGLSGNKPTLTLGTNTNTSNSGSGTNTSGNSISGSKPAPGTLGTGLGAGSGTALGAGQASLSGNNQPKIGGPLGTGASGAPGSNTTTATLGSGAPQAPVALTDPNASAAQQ
